Patent US20220119534A1 (DRAGONFLY THERAPEUTICS, published 2022)
Where “and” joins values, the source holds several entries; their conditions need not be identical. Equal entries are not always repeated.

What was measured:
[1] = molecular target: T1, Human CLEC12A-His (recombinant, K244 WT) (human, UniProt Q5QGZ9 65-265); experiment: SPR, two-state fit (ka1); control sample
T1 construct: Made in house (Dragonfly Tx); also called hCLEC12A; hCLEC12A-His; not shown: His tag
T1 sequence: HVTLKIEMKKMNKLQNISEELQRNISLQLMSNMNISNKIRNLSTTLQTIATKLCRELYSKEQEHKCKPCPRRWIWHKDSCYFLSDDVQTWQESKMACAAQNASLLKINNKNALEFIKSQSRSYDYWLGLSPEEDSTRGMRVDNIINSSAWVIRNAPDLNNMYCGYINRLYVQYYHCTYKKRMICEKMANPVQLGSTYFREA

[2] = molecular target: T2, mFc-hNKG2D (recombinant mFc-tagged human NKG2D dimer) (human, UniProt P26718 73-216); experiment: SPR; control sample
T2 construct: extracellular domain; Made in house; not shown: mouse Fc tag
T2 sequence (looked up): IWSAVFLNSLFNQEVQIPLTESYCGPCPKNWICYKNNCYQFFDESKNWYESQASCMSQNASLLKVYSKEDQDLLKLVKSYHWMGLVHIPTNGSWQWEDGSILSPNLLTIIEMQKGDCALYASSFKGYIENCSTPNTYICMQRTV

[3] = molecular target: T3, Human CD16a V158 (FcγRIIIa V158) (human, UniProt P08637 17-208, biotinylated); experiment: SPR; control sample
T3 construct: Bought recombinant receptor; also called hCD16aV; hFcγRIIIa V158
T3 sequence (P08637 17-208 F176V limits assumed): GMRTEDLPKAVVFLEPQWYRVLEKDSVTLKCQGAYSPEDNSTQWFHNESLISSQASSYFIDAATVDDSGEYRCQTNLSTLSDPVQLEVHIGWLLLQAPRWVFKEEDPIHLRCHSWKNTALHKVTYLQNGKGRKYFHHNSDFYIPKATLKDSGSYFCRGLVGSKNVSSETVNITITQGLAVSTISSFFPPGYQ

Human CD16b (FcγRIIIb) = molecular target: T4, Human CD16b (FcγRIIIb) (human, UniProt O75015 17-200, limits assumed, biotinylated); experiment: SPR 25C, biotinylated CD16b captured
T4 construct: Bought recombinant receptor; also called hFcγRIIIb; CD16b (FcγR3b)
T4 sequence (O75015 17-200 limits assumed): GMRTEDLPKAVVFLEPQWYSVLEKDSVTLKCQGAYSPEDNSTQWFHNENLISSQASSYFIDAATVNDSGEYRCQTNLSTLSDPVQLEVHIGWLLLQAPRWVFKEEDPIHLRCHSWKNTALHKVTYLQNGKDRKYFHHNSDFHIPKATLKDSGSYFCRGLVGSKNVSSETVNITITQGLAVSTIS

kon [1]: 1.01e+07 M⁻¹ s⁻¹
Kd [2]: 797 nM
koff [2]: 0.135 s⁻¹
kon [2]: 169000 M⁻¹ s⁻¹
Kd [3]: 322 nM
koff [3]: 0.0278 s⁻¹
kon [3]: 86400 M⁻¹ s⁻¹
Kd (Human CD16b (FcγRIIIb)): 10.3 µM and 8.8 µM and 7.4 µM
B1: AB0089 TriNKET (bispecific antibody, human IgG1, kappa)
chain: QLQLQESGPGLVKPSETLSLTCTVSGFSLTNYGLHWIRQPPGKCLEWIGVIWVGGATDYNPSLKSRVTISVDTSKNQFSLKLSSVQAADTAVYYCAKGDYGDTLDYWGQGTLVTVSSGGGGSGGGGSGGGGSGGGGSDIQMTQSPSSLSASVGDRVTITCHASQNINFWLSWYQQKPGKAPKLLIYEASNLHTGVPSRFSGSGSGTDFTLTISSLQPEDFATYYCQQSHSYPLTFGCGTKLEIKGSDKTHTCPPCPAPELLGGPSVFLFPPKPKDTLMISRTPEVTCVVVDVSHEDPEVKFNWYVDGVEVHNAKTKPREEQYNSTYRVVSVLTVLHQDWLNGKEYKCKVSNKALPAPIEKTISKAKGQPREPRVYTLPPCRDELTKNQVSLTCLVKGFYPSDIAVEWESNGQPENNYKTTPPVLVSDGSFTLYSKLTVDKSRWQQGNVFSCSVMHEALHNHYTQKSLSLSPG
heavy: EVQLVESGGGLVKPGGSLRLSCAASGFTFSSYSMNWVRQAPGKGLEWVSSISSSSSYIYYADSVKGRFTISRDNAKNSLYLQMNSLRAEDTAVYYCARGAPIGAAAGWFDPWGQGTLVTVSSASTKGPSVFPLAPSSKSTSGGTAALGCLVKDYFPEPVTVSWNSGALTSGVHTFPAVLQSSGLYSLSSVVTVPSSSLGTQTYICNVNHKPSNTKVDKKVEPKSCDKTHTCPPCPAPELLGGPSVFLFPPKPKDTLMISRTPEVTCVVVDVSHEDPEVKFNWYVDGVEVHNAKTKPREEQYNSTYRVVSVLTVLHQDWLNGKEYKCKVSNKALPAPIEKTISKAKGQPREPQVCTLPPSRDELTENQVSLTCLVKGFYPSDIAVEWESNGQPENNYKTTPPVLDSDGSFFLYSWLTVDKSRWQQGNVFSCSVMHEALHNHYTQKSLSLSPG
light: DIQMTQSPSSVSASVGDRVTITCRASQGISSWLAWYQQKPGKAPKLLIYAASSLQSGVPSRFSGSGSGTDFTLTISSLQPEDFATYYCQQGVSFPRTFGGGTKVEIKRTVAAPSVFIFPPSDEQLKSGTASVVCLLNNFYPREAKVQWKVDNALQSGNSQESVTEQDSKDSTYSLSSTLTLSKADYEKHKVYACEVTHQGLSSPVTKSFNRGEC
notes: F3' format heterodimer of three chains; human IgG1 Fc with EW-RVT and Y349C/S354C mutations; also called AB0089 Lot AB0089-002; CLEC12A TriNKET AB0089
